Assay results: patent US20170240637A1 (Memorial Sloan Kettering, published 2017)
Residue numbers refer to the chain shown, from its start.

Experiments:
4Ig-B7H3 [1] = molecular target: T1, 4Ig-B7H3 (human, UniProt Q5ZPR3 27-461, limits assumed); assay: SPR, IgG on 4Ig-B7-H3 without Fc fusion
T1 construct: also called 4Ig-B73H3
T1 sequence (looked up): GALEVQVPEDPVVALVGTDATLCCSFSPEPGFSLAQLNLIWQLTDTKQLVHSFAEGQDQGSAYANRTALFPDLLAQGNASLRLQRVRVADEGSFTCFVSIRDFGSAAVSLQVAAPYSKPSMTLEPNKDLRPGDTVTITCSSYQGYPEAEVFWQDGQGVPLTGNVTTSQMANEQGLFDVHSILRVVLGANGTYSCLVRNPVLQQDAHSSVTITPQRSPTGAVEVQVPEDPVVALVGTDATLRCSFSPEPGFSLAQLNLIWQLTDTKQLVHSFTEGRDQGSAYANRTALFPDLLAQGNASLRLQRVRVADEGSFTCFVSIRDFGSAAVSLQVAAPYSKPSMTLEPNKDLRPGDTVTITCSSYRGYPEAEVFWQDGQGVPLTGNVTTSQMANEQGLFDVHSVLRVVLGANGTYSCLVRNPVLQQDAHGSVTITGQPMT
Method: (§1) In brief, B7H3 antigen (either 2Ig-B7H3, 4Ig-B7H3, 2Ig-B7H3-mFc, 4Ig-B7H3-mFc), was directly immobilized onto the CM5 sensor chip via […]. Reference surface was set up for nonspecific binding and refractive index changes. […] The association and dissociation phase data were fitted simultaneously to a 1:1 model by using BIAevaluation 3.2. All the experiments were done at 25° C.

[2] = molecular target: B7H3 on B7H3-positive human tumor cells (M14, LAN-1, IMR-32, HeLa) (human) (UniProt Q5ZPR3); assay: cell-based or functional assay
4Ig-B7H3 [3] = molecular target: T1, 4Ig-B7H3; assay: SPR
[4] = molecular target: T2, 2Ig-B7H3 without Fc fusion (human, UniProt Q5ZPR3-2 29-245, limits assumed); assay: SPR
T2 construct: also called 2IgB7H3 (R&D)
T2 sequence (looked up): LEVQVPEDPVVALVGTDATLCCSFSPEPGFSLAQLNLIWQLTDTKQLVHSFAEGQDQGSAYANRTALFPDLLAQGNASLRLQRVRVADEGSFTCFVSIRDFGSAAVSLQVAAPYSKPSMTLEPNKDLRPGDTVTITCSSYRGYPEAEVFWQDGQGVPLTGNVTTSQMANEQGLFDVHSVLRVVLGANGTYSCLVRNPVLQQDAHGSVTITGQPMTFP

[5] = molecular target: T3, 4Ig-B7H3 fused to mouse Fc (B7H3-mFc) (human, UniProt Q5ZPR3 29-466, limits assumed, biotinylated on primary amines (NHS-biotin) in the experiment of paragraph 316); assay: SPR, IgG on 4Ig-B7H3-Fc
T3 construct: Expressed in DG44 CHO cells; also called 4Ig-B7H3-Fc; 4Ig-B7H3-mFc; not shown: mouse Fc
T3 sequence (looked up): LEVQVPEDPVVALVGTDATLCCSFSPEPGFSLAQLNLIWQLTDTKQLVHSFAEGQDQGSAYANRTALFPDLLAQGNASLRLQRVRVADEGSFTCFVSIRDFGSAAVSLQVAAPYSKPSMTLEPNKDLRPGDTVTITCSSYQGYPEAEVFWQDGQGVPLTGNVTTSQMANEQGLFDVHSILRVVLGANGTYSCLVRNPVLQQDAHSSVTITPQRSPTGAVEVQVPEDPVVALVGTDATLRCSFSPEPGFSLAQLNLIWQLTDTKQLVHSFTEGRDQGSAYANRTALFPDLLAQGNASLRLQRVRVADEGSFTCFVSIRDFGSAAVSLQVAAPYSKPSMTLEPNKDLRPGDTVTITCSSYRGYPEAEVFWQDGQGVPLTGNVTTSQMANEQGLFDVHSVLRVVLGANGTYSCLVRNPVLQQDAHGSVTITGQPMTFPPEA
Method: as §1

[6] = molecular target: T2, 2Ig-B7H3 without Fc fusion; assay: SPR, IgG on 2Ig-B7-H3 without Fc fusion
Method: as §1

[7] = molecular target: B7H3 on B7H3-positive human tumor cells (M14, LAN-1, IMR-32, HeLa) (human) (UniProt Q5ZPR3); assay: cell-binding assay of 131I-labelled antibody on LAN-1 cells
[8] = molecular target: T4, 2Ig-B7H3-mFc mutant R127A (human, UniProt Q5ZPR3-2 29-248, limits assumed); assay: SPR, IgG over immobilised 2Ig-B7H3-mFc R127A (left panel); antibody concentration not shown
T4 construct: not shown: mouse Fc
T4 sequence (looked up): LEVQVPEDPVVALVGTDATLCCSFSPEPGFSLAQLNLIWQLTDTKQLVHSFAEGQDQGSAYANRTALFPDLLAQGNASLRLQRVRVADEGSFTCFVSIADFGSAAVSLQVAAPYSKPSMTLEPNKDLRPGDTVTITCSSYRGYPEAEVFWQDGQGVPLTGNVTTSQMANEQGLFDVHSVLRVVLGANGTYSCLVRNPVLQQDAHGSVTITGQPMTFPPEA

wild type 2Ig-B7H3-mFc [9] = molecular target: T5, wild type 2Ig-B7H3-mFc (human, UniProt Q5ZPR3-2 29-248, limits assumed); assay: SPR, IgG on 2Ig-B7H3-mFc
T5 construct: Q5ZPR3 canonical entry is the 4Ig isoform; the 2Ig form is its shorter isoform; also called 2Ig-B7H3-Fc; WT 2Ig-B7H3-Fc; not shown: mouse Fc
T5 sequence (looked up): T4 sequence (looked up) with A99R
Method: as §1

[10] = molecular target: T4, 2Ig-B7H3-mFc mutant R127A; assay: SPR, IgG over immobilised 2Ig-B7H3-mFc R127A (right panel); antibody concentration not shown
[11] = molecular target: T4, 2Ig-B7H3-mFc mutant R127A; assay: SPR, mutant 2Ig-B7H3-mFc on chip
Method: (§2) In brief, B7H3 antigen (either 2Ig-B7H3, 4Ig-B7H3, 2Ig-B7H3-mFc, 4Ig-B7H3-mFc), was directly immobilized onto the CM5 sensor chip via […]. Reference surface was set up for nonspecific binding and refractive index changes. For analysis of the kinetics of interactions, varying concentrations of scFvs were injected at flow rate of 30 μl/min using running buffer containing 10 mM HEPES, 150 mM NaCl, 3 mM EDTA, and 0.05% Surfactant P-20 (pH 7.4). The association and dissociation phase data were fitted simultaneously to a 1:1 model by using BIAevaluation 3.2. All the experiments were done at 25° C.

4Ig-B7H3 [12] = molecular target: T1, 4Ig-B7H3; assay: ELISA titled 'B7H3 ELISA'; legend: 4Ig-B7H3 (the ELISA method coats B7H3-mFc); IgG serially diluted
Method: B7H3-mFc (100 ng/well) or 2IgB7H3 (R&D, Minneapolis, Minn.) (25 ng/well) were coated on polyvinyl microtiter plates in PBS overnight. Plates were then blocked with 0.5% BSA in PBS at 150 μl per well for 1 h at room temperature. Antibodies were added in triplicates with serial dilution in 0.5% BSA. Following incubation for 1 h at room temperature and washing with PBS, HRP-mouse anti-human Fc antibody, HRP-streptavidin, or HRP-mouse anti-Flag antibody was added. After incubation for 1 h at room temperature and further washing, the color was developed and quantified using an ELISA plate reader at 490 nm.

wild type 2Ig-B7H3-mFc [13] = molecular target: T5, wild type 2Ig-B7H3-mFc; assay: SPR, antigen on CM5 chip
Method: as §2

B1: hu8H9 3.1 IgG1 (antibody, V domains shown)
VH: QVQLVQSGAEVVKPGASVKLSCKTSGYTFTNYDINWVRQRPGQGLEWIGWIFPGDDSTQYNEKFKGKATLTTDTSTSTAYMELSSLRSEDTAVYFCARQTTGTWFAYWGQGTLVTVSS
VL: EIVMTQSPATLSVSPGERVTLSCRASQSISDYLYWYQQKSHESPRLLIKYASQSISGIPARFSGSGSGSEFTLTINSVEPEDVGVYYCQNGHSFPLTFGQGTKLELKR
notes: also called clone 3.1
4Ig-B7H3 [1]
  Kd: 13 nM
  koff: 0.000298 s⁻¹
  kon: 23400 M⁻¹ s⁻¹
[2]
  ADCC EC50 (µg/ml), 51Cr release, LAN-1 targets, human PBMC effectors: 0.31 µg/mL
  Fold change EC50 relative to ch8H9 (ADCC): 5 fold
4Ig-B7H3 [3]
  fold enhancement in affinity against parental hu8H9 H3L3: 2.5 to 9 fold
[4]
  fold enhancement in affinity against parental hu8H9 H3L3: 2.5 to 9 fold
[5]
  Kd: 2 nM
  koff: 0.000114 s⁻¹
  kon: 55600 M⁻¹ s⁻¹
[6]
  Kd: 5 nM
  koff: 0.000171 s⁻¹
  kon: 33900 M⁻¹ s⁻¹
[7]
  in vitro immunoreactivity: 54%
[8]
  binding result: no binding
Wild type 2Ig-B7H3-mFc [9]
  Kd: 6 nM
  koff: 0.000232 s⁻¹
  kon: 38700 M⁻¹ s⁻¹

B2: hu8H9 5.1 IgG1 (antibody, V domains shown)
VH: B1 VH with L20V, K67R, A68V, L70M, A79V
VL: B1 VL with E42Q, S43A, N76S, V78L, E79Q, V83F
notes: also called clone 5.1
[2]
  ADCC EC50 (µg/ml), 51Cr release, LAN-1 targets, human PBMC effectors: 0.16 µg/mL
  Fold change EC50 relative to ch8H9 (ADCC): 9 fold
[10]
  binding result: no binding
[5]
  Kd: 1.3 nM
  koff: 7.08e-05 s⁻¹
  kon: 59200 M⁻¹ s⁻¹
Wild type 2Ig-B7H3-mFc [9]
  Kd: 0.82 nM
  koff: 5.59e-05 s⁻¹
  kon: 67800 M⁻¹ s⁻¹

B3: mouse/human chimeric 8H9 (ch8H9) IgG1 (antibody, V domains shown)
VH: QVQLQQSGAELVKPGASVKLSCKASGYTFTNYDINWVRQRPEQGLEWIGWIFPGDGSTQYNEKFKGKATLTTDTSSSTAYMQLSRLTSEDSAVYFCARQTTATWFAYWGQGTLVTVSA
VL: B1 VL with E1D, S14T, E17D, T20S, Y34H, A60S, E70D, T74S, Q100A
[11]
  binding result: no binding (tested: 400 nM)
4Ig-B7H3 [12]
  EC50 (read off the curve): ~0.005 µg/mL
4Ig-B7H3 [1]
  Kd: 7.7 nM
  koff: 0.000218 s⁻¹
  kon: 28300 M⁻¹ s⁻¹
[5]
  Kd: 1.2 nM
  koff: 5.49e-05 s⁻¹
  kon: 44800 M⁻¹ s⁻¹
[6]
  Kd: 2.7 nM
  koff: 8.73e-05 s⁻¹
  kon: 32100 M⁻¹ s⁻¹
Wild type 2Ig-B7H3-mFc [13]
  Kd: 0.74 nM
  koff: 3.51e-05 s⁻¹
  kon: 47400 M⁻¹ s⁻¹
Wild type 2Ig-B7H3-mFc [9]
  Kd: 0.76 nM
  koff: 3.79e-05 s⁻¹
  kon: 49600 M⁻¹ s⁻¹
